The target of data set [1] is T1, NONO in NONO/SFPQ heterodimer;SFPQ in NONO/SFPQ heterodimer (human;human?, UniProt Q15233;P23246 53-312;276-535, |).
T1 sequence 1: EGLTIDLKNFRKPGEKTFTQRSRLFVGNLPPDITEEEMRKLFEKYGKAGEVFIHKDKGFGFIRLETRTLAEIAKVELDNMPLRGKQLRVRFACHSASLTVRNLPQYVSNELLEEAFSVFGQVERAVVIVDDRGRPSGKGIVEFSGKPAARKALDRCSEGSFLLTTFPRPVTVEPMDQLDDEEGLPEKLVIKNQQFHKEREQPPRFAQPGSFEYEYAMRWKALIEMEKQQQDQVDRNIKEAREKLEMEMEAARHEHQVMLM
T1 sequence 2: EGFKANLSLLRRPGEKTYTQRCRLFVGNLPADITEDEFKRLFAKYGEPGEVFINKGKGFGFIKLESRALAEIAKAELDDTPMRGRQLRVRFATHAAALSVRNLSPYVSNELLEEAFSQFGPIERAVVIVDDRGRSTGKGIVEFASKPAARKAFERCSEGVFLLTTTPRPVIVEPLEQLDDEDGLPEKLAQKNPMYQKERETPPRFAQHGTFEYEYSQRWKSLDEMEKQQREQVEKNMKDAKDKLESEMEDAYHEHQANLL
Briefly: MST.

The target of the next data set is T2, NONO homodimer (human, UniProt Q15233 53-312).
T2 sequence: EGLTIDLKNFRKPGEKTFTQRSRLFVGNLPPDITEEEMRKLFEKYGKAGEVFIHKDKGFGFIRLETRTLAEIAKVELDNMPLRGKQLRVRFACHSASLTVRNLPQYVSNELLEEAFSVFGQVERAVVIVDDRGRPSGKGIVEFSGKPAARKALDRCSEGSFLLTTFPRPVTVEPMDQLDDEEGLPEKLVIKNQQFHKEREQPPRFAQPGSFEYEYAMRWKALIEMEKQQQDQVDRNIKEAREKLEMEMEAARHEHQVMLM
The data set can be described thus: MST.

As to TUGUGCCGUCU (ssRNA, 5' residue printed as T) [GU-rich RNA oligo 2], the binding result (in data set [1]; in the data set with NONO homodimer) was “binds” each time.

For TGUGUGUGGCCGU (ssRNA, 5' residue printed as T) [GU-rich RNA oligo 1], the binding result (in data set [1]; in the data set with NONO homodimer) was “binds” throughout.

The values are drawn from article PMC12918760.
